Experimental findings from paper doi:10.1101/651877 (bioRxiv, 2019) are described below.

The target in data set [1] is wild type Mfn2 with a C-terminal 3xFLAG tag (UniProt Q80U63). The data set can be described thus: native gel or EMSA. Background: Mobility shift assays separate free from complexed probe on a gel.
The data set “native gel or EMSA” deals with the molecule itself. Description: native gel or EMSA.

Changes are numbered by the printed parent chain. Numbers in names are those of the source.

In the case of “wild type Mfn2 with a C-terminal 3xFLAG tag (from UniProt Q80U63 1-757) (natural protein)”, the stoichiometry N in data set [1] was determined as 2.

B1: Mfn2^S378P with a C-terminal 3xFLAG tag (natural protein, UniProt Q80U63 1-757, looked up)
chain: MSLLFSRCNSIVTVKKDKRHMAEVNASPLKHFVTAKKKINGIFEQLGAYIQESASFLEDTHRNTELDPVTTEEQVLDVKGYLSKVRGISEVLARRHMKVAFFGRTSNGKSTVINAMLWDKVLPSGIGHTTNCFLRVGGTDGHEAFLLTEGSEEKKSVKTVNQLAHALHQDEQLHAGSMVSVMWPNSKCPLLKDDLVLMDSPGIDVTTELDSWIDKFCLDADVFVLVANSESTLMQTEKQFFHKVSERLSRPNIFILNNRWDASASEPEYMEEVRRQHMERCTSFLVDELGVVDRAQAGDRIFFVSAKEVLSARVQKAQGMPEGGGALAEGFQVRMFEFQNFERQFEECISQSAVKTKFEQHTVRAKQIAEAVRLIMDPLHIAAQEQRVYCLEMREERQDRLRFIDKQLELLAQDYKLRIKQITEEVERQVSTAMAEEIRRLSVLVDEYQMDFHPSPVVLKVYKNELHRHIEEGLGRNLSDRCSTAIASSLQTMQQDMIDGLKPLLPVSMRNQIDMLVPRQCFSLSYDLNCDKLCADFQEDIEFHFSLGWTMLVNRFLGPKNSRRALLGYSDQVQRPLPLTPANPSMPPLPQSSLTQEELMVSMVTGLASLTSRTSMGILVVGGVVWKAVGWRLIALSFGLYGLLYVYERLTWTTKAKERAFKRQFVEYASEKLQLIISYTGSNCSHQVQQELSGTFAHLCQQVDITRDNLEQEIAAMNKKVEALDSLQSRAKLLRNKAGWLDSELNMFTHQYLQPSR
As for B1, the “stoichiometry N” value in the data set “native gel or EMSA” is 2.

B2: Mfn2^C390F with a C-terminal 3xFLAG tag (natural protein, UniProt Q80U63 1-757, looked up)
chain: B1 chain with P378S, C390F
In the case of B2, the “stoichiometry N” value in “native gel or EMSA” came to 2.

B3: Mfn2^A383V with a C-terminal 3xFLAG tag (natural protein, UniProt Q80U63 1-757, looked up)
chain: B1 chain with P378S, A383V
With B3, the “stoichiometry N” value in the data set “native gel or EMSA” came to 2.

B4: Mfn2^Q386P with a C-terminal 3xFLAG tag (natural protein, UniProt Q80U63 1-757, looked up)
chain: B1 chain with P378S, Q386P
Turning to B4, the “stoichiometry N” value in “native gel or EMSA” is 2.

As usually defined, the stoichiometry N is a count of units in the complex or per binding partner.
